This note sets out measurements from publication PMC8249414.

The target in this assay is nucleosome core particle with 167 bp '601' DNA (167NCP).

Turning to “ALC1 (1-673) D381A mutant (from UniProt Q86WJ1 1-673) (domain or fragment)”, the Km of nucleosome remodeling (enzyme 10-640 nM), against ALC1 (1-673) stood at 2 fold.
